Measured values: patent US20080056997A1

Molecular target: human domain D of tenascin C (TnC-D) (human) (UniProt P24821)
Experiment: method not stated in the sentence (ELISA-positive clone, further characterization)

Chain of UniProt P24821 (P24821 1622-1711): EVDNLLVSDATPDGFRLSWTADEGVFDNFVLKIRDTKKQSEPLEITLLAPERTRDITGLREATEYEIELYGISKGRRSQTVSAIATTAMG

B1: scFv(P12) (scFv, part only; not given: VH-VL peptide linker, part only)
scFv, part: EVQLVESGGGLVQPGGSLRLSCAASGFTFGQYSMSWVRQAPGKGLEWVSAITGTGGETYYADSVEGRFTISRDNSKNTLYLQMNSLRAEDTAVYYCAKGRRIFDYWGQGTLVTVSRSSELTQDPAVSVALGQTVRITCQGDSLRRQPASWYQQKPGQAPVLVIYYKKLRPSGIPDRFSGSSSGNTASLTITGAQAEDEADYYCNSFSPKPKPVVFGGGTKLTVLG
  factor of affinity improvement compared to scFv(D11): 4.8 fold
